Laboratory results: doi:10.1101/2020.03.20.000240
pKd: −log10 of the molar value.

How the values were obtained:
Assay in all cases: SPR
[1] = biological target: full length UmuDAb transcription repressor from Acinetobacter baumannii (Acinetobacter baumannii ATCC 17978)
[2] = biological target: UmuDAb C-terminal domain (CTD) (Acinetobacter baumannii ATCC 17978)
[3] = biological target: full-length UmuD, component of DNA polymerase V, from Acinetobacter baumannii (Acinetobacter baumannii ATCC 17978)

**Q.** With “DdrR protein from Acinetobacter baumannii (natural protein)” as the substance, how does the pKd [1] read?
**A.** The pKd was 7.08.

**Q.** What about the pKd [2] of the same substance?
**A.** Its pKd is 6.97.

**Q.** What about the pKd [3] of the same substance?
**A.** Its pKd is 6.53.
